# Where “and” joins values, the source holds several entries; their conditions need not be identical. Identical values can stand only once.
# Tests used:
# [1] = tested on: cyclic flow reductions (CFRs) in injured, stenosed femoral artery; assay: Folts thrombosis model in baboons: length/inhibition of cyclic flow reductions (CFRs); format: in vivo, baboon (Papio ursinus)
# Protocol: The study protocol that was applied is the original Folts model and some modifications described below (Folts J D, et al, Circulation. 1976; 54:365-370). Healthy male or female baboons (Papio ursinus) were used. The animals were 8-17 kg of weight and were disease-free for at least 2 weeks prior to use. The baboons were fed with dry standard food only. The baboons were used at different time points. […] Animals were anaesthetized and body temperature is maintained at 37° C. with a heating table. A segment of a femoral artery was dissected free from surrounding tissue. A shunt was placed between the femoral vein and femoral artery to obtain high shear rates. The mean and phasic blood flow was recorded continuously throughout the experiment. Baseline flow was recorded for 20 minutes. […] A clamp was placed over the injured site to create an external stenosis. A gradual decline in blood flow due to platelet adhesion and aggregation was observed. When flow was reduced to zero, blood flow was restored by opening the clamp to dislodge the platelet-rich thrombus. This repetitive pattern of decreasing blood flow following mechanical restoration is referred to as cyclic flow reductions (CFRs). Additional endothelial injury was repeated if needed to finally obtain stable CFRs in these baboons. The number of times the thrombus needed to be dislodged determines the number of CFRs. FIG. 24 illustrates blood flow pattern during the Folts model in baboons. […] This procedure was repeated for several times with escalating doses of the test substance. The anti-thrombotic effect was quantified by comparing the length of CFRs before and after drug administration. When full inhibition of CFRs was observed, a new injury was applied in order to confirm that the inhibition was an effect of the treatment but not of a natural healing phenomenon.
# [2] = tested on: platelet adhesion to collagen type III; assay: Inhibition of platelet adhesion by nanobodies in a flow (perfusion) chamber; format: cell-based, human; conditions: for % Platelet adhesion at 2 μg/ml: human blood, collagen type III, wall shear rate 1600 s^−1
# Protocol: The protein samples were analysed in a perfusion chamber. Thermanox coverslips (Nunc) were soaked overnight in 80% ethanol, rinsed thoroughly with distilled water and air-dried. Human placental collagen type III (Sigma) was solubilized in 0.05 mol/l acetic acid and sprayed on the coverslips at a final density of 30 μg/cm^2 with a retouching airbrush. After spraying the coverslips were blocked with 1% human albumin solution in PBS for at least 1 hour at RT. Perfusions were performed with a single-pass perfusion chamber under non-pulsatile flow conditions using a modified small perfusion chamber with a slit height of 0.1 mm and a slit width of 2 mm. Blood was obtained by venipuncture from healthy volunteers and anti-coagulated with Penta/PPACK. Triplicate coverslips were inserted into the chamber. […] After a perfusion run, the coverslip was taken from the chamber, rinsed in Hepes buffered saline (10 mM Hepes, 150 mM NaCL, ph 7.4), fixed in 0.5% glutaraldehyde in PBS, dehydrated in methanol and stained with May-Grünwald and Giemsa (Riedel de Haën). Platelet deposition was evaluated as platelet surface coverage using light microscopy and computer-assisted analysis.
# [3] = number of experiments with inhibition / total number of independent repeats
molecule,measurement,setting,value
CC(=O)Oc1ccccc1C(=O)O [Aspegic],Length of CFRs,"[1]; Aspegic final dose 1 mg/kg, individual baboons 3, 4, 5, 1 mg/kg",149 s and 164 s and 135 s
same,Length of CFRs,"[1]; Aspegic final dose 2.5 mg/kg, individual baboons 3, 4, 5, 2.5 mg/kg",102 s and 325 s and 115 s
same,Length of CFRs,"[1]; Aspegic final dose 5 mg/kg, individual baboons 3, 4, 5, 5 mg/kg",102 s and 1800 s and 245 s
same,Length of CFRs,"[1]; Aspegic final dose 10 mg/kg, individual baboons 3, 4, 5, 10 mg/kg",113 s and 905 s and 156 s
same,Length of CFRs,"[1]; Aspegic final dose 20 mg/kg, individual baboons 3, 4, 5, 20 mg/kg",125 s and 657 s and 169 s
same,Length of CFRs,"[1]; Aspegic final dose 40 mg/kg, individual baboons 3, 5, 40 mg/kg",110 s and 145 s
same,Length of CFRs,"[1]; Aspegic final dose 80 mg/kg, baboon 3",129 s
same,Length of CFRs,"[1]; Aspegic-treated, after Epinephrin, baboon 4",161 s
same,Inhibition of CFRs,"[1]; baboon 3 and 5, doses as high as 80 and 40 mg/kg respectively",no inhibition of CFRs could be obtained
same,dose at which full inhibition of CFRs was obtained,[1]; baboon 4,5 mg/kg
same,mean length of the CFRs versus before administration,"[1]; baboon 4, higher doses and upon new injury, CFRs returned",3-4 times
same,Inhibition of CFRs,[1]; [3],0/3
same,Inhibition of CFRs after administration of Epinephrin,[1]; [3],0/1
same,Inhibition of CFRs after new injury,[1]; [3],0/3
"12D11: anti-vWF nanobody, SEQ ID NO: 63 (protein) VHH: AVQLVDSGGGLVQAGGSLRLSCTASERTTFSSYTLGWFRQAPGKEREFVGGISWSGVSTDYAEFAKGRFTISRDHAANTVYLEMNSLKPEDTAVYYCAALGRYRSNWRNIGQYDYWGQGTQVTVSS",% Platelet adhesion at 2 μg/ml,[2]; 2 μg/ml nanobody,61 ± 7%
"12A2H4: humanised 12A2 nanobody, SEQ ID NO: 92 (protein) VHH: EVQLVESGGGLVQPGGSLRLSCAASGRTFSYNPMGWFRQAPGKGRELVAAISRTGGSTYYPDSVEGRFTISRDNAKRSVYLQMNSLRAEDTAVYYCAAAGVRAEDGRVRTLPSEYTFWGQGTQVTVSS",% Platelet adhesion,"[2]; 0.5 μg/ml nanobody, Table 32",61 ± 1%
same,% Platelet adhesion,"[2]; 0.7 μg/ml nanobody, Table 31",55 ± 1%
same,% Platelet adhesion,"[2]; 1 μg/ml nanobody, Table 32",57 ± 1%
same,% Platelet adhesion,"[2]; 2 μg/ml nanobody, Table 32",46 ± 5%
"12A2H1: humanised 12A2 nanobody, SEQ ID NO: 90 (protein) VHH: EVQLVESGGGLVQPGGSLRLSCAASGRTFSYNPMGWFRQAPGKGRELVAAISRTGGSTYYPDSVEGRFTISRDNAKRMVYLQMNSLRAEDTAVYYCAAAGVRAEDGRVRTLPSEYTFWGQGTQVTVSS",% Platelet adhesion,"[2]; 0.5 μg/ml nanobody, Table 32",40 ± 9%
same,% Platelet adhesion,"[2]; 0.7 μg/ml nanobody, Table 31",49 ± 1%
same,% Platelet adhesion,"[2]; 1 μg/ml nanobody, Table 32",43 ± 3%
same,% Platelet adhesion,"[2]; 2 μg/ml nanobody, Table 32",38 ± 5%
12B6-3a-12B6 (protein) VHH: QVQLVESGGGLVQAGGALRLSCAASGRTFSYNPMGWFRQAPGKERDVVAAISRTGGSTYYARSVEGRFTISRDNAKRMVYLQMNALKPEDTAVYYCAAAGVRAEDGRVRTLPSEYNFWGQGTQVTVSSAAAEVQLVESGGGLVQAGGALRLSCAASGRTFSYNPMGWFRQAPGKERDVVAAISRTGGSTYYARSVEGRFTISRDNAKRMVYLQMNALKPEDTAVYYCAAAGVRAEDGRVRTLPSEYNFWGQGTQVTVSS,% Platelet adhesion,"[2]; 0.3 μg/ml nanobody, Table 41",15 ± 6%
same,% Platelet adhesion,"[2]; 0.6 μg/ml nanobody, Table 41",8 ± 6%
"12C9: anti-vWF nanobody, SEQ ID NO: 65 (protein) VHH: AVQLVESGGGLVQPGGSLKLSCATSGSIFSSSAMAWYRQASGKQRELVATITSGGRTSYADSVKGRFTISRDNAKNTVYLQMNSLKPEDTAVYDCNFVVDGKRAPWGQGTQVTVSS",% Platelet adhesion at 2 μg/ml,[2]; 2 μg/ml nanobody,68 ± 8%
12A2-3a-12A2 (protein) VHH: QVKLEESGGGLVQAGGALRLSCAASGRTFSYNPMGWFRQAPGKERDLVAAISRTGGSTYYPDSVEGRFTISRDNAKRMVYLQMNNLKPEDTAVYYCAAAGVRAEDGRVRTLPSEYTFWGQGTQVTVSSAAAEVQLVESGGGLVQAGGALRLSCAASGRTFSYNPMGWFRQAPGKERDLVAAISRTGGSTYYPDSVEGRFTISRDNAKRMVYLQMNNLKPEDTAVYYCAAAGVRAEDGRVRTLPSEYTFWGQGTQVTVSS,% Platelet adhesion,"[2]; 0.1 μg/ml nanobody, Table 23",74 ± 5%
same,% Platelet adhesion,"[2]; 0.2 μg/ml nanobody, Table 23",50 ± 3%
same,% Platelet adhesion,"[2]; 0.3 μg/ml nanobody, Table 41",10 ± 8%
same,% Platelet adhesion,"[2]; 0.4 μg/ml nanobody, Table 23",33 ± 0%
same,% Platelet adhesion,"[2]; 0.6 μg/ml nanobody, Table 41",4 ± 3%
12A2H4-3a-12A2H4 (protein) EVQLVESGGGLVQPGGSLRLSCAASGRTFSYNPMGWFRQAPGKGRELVAAISRTGGSTYYPDSVEGRFTISRDNAKRSVYLQMNSLRAEDTAVYYCAAAGVRAEDGRVRTLPSEYTFWGQGTQVTVSSAAAEVQLVESGGGLVQPGGSLRLSCAASGRTFSYNPMGWFRQAPGKGRELVAAISRTGGSTYYPDSVEGRFTISRDNAKRSVYLQMNSLRAEDTAVYYCAAAGVRAEDGRVRTLPSEYTFWGQGTQVTVSS,% Platelet adhesion,"[2]; 0.3 μg/ml nanobody, Table 41",10 ± 6%
same,% Platelet adhesion,"[2]; 0.6 μg/ml nanobody, Table 41",8 ± 4%
12B6H2-3a-12B6H2 (protein) VHH: EVQLVESGGGLVQPGGSLRLSCAASGRTFSYNPMGWFRQAPGKGREVVAAISRTGGSTYYARSVEGRFTISRDNAKRMVYLQMNSLRAEDTAVYYCAAAGVRAEDGRVRTLPSEYNFWGQGTQVTVSSAAAEVQLVESGGGLVQPGGSLRLSCAASGRTFSYNPMGWFRQAPGKGREVVAAISRTGGSTYYARSVEGRFTISRDNAKRMVYLQMNSLRAEDTAVYYCAAAGVRAEDGRVRTLPSEYNFWGQGTQVTVSS,% Platelet adhesion,"[2]; 0.3 μg/ml nanobody, Table 41",30 ± 16%
same,% Platelet adhesion,"[2]; 0.6 μg/ml nanobody, Table 41",17 ± 6%
12A2-GS9-12A2 (protein) VHH: QVKLEESGGGLVQAGGALRLSCAASGRTFSYNPMGWFRQAPGKERDLVAAISRTGGSTYYPDSVEGRFTISRDNAKRMVYLQMNNLKPEDTAVYYCAAAGVRAEDGRVRTLPSEYTFWGQGTQVTVSSGGGGSGGGSEVQLVESGGGLVQAGGALRLSCAASGRTFSYNPMGWFRQAPGKERDLVAAISRTGGSTYYPDSVEGRFTISRDNAKRMVYLQMNNLKPEDTAVYYCAAAGVRAEDGRVRTLPSEYTFWGQGTQVTVSS,% Platelet adhesion,"[2]; 0.1 μg/ml nanobody, Table 23",81 ± 1%
same,% Platelet adhesion,"[2]; 0.2 μg/ml nanobody, Table 23",73 ± 1%
same,% Platelet adhesion,"[2]; 0.4 μg/ml nanobody, Table 23",40 ± 2%
"12A5: anti-vWF nanobody, SEQ ID NO: 60 (protein) VHH: AVQLVESGGGLVQPGGSLRLSCLASGRIFSIGAMGMYRQAPGKQRELVATITSGGSTNYADPVKGRFTISRDGPKNTVYLQMNSLKPEDTAVYYCYANLKQGSYGYRFNDYWGQGTQVTVSS",% Platelet adhesion,"[2]; 0.2 μg/ml nanobody, Table 15",50 ± 7%
same,% Platelet adhesion,"[2]; 0.4 μg/ml nanobody, Table 15",27 ± 10%
same,% Platelet adhesion,"[2]; 0.6 μg/ml nanobody, Table 15",2 ± 2%
same,% Platelet adhesion at 2 μg/ml,[2]; 2 μg/ml nanobody,10 ± 3%
same,inhibition of platelet adhesion to collagen type III,[2]; perfusion chamber at high shear rate,clearly inhibit platelet adhesion
same,concentration with full inhibition of platelet adhesion,"[2]; tested at 0.2, 0.4 and 0.6 μg/ml, same donor",0.6 µg/mL
"14F8: anti-vWF nanobody, SEQ ID NO: 66 (protein) VHH: AVQLVESGGGLVQAGESLRLSCTSSGRAFSYYNTGWFRQAPGKEREFVAAISWSGGLTYYADSVKGRFTISRDNAKDMVYLQMASLKPEDTAVYYCAANRRQKTVQMGERAYDYWGQGTQVTVSS",% Platelet adhesion at 2 μg/ml,[2]; 2 μg/ml nanobody,51 ± 10%
"12B1: anti-vWF nanobody, SEQ ID NO: 61 (protein) VHH: QVQLVESGGGLVQAGGSLRLSCAASGRTFSNYGMGWFRQAPGKEREFVTSISWSGTYTAYSDNVKGRFTISRDNAKNTVYLQMDSLKPEDTAVYYCAAQSRYRSNYYDHDDKYAYWGQGTQVTVSS",% Platelet adhesion at 2 μg/ml,[2]; 2 μg/ml nanobody,56 ± 3%
"12E3: anti-vWF nanobody, SEQ ID NO: 64 (protein) VHH: EVQLVESGGGLVQAGGSLRLSCAASGRTFNNYGMGWFRQAPGKEREFVTSISWSGSYTAYADNVKGRFTISRDNAKNTVYLQMDSLKPGDTAVYYCAAQSRYSSNYYDHDDKYAYWGQGTQVTVSS",% Platelet adhesion at 2 μg/ml,[2]; 2 μg/ml nanobody,54 ± 1%
